Experiment: soluble on expression in E. coli; label from the status in PepcDB or PDB records

Sequence	soluble on expression in E. coli
MGSDKIHHHHHHMGFRNVIITQHSKLSYSNNAMIVQNKDGINQIPLVDMDILLISTTQAVITSALVSKLAESGIKVIFTDNKNEPVTETVNYYPNNRSLDTYLQQYEWNDHVKEILWTKIVRSKIINQIKVLKNYQIDCQDLKIELDKLEINDMTNREAVVARKYFEKLFGNKYSRKDFTPMNAALNYGYSILLSAVNKEIVSAGYVTYLGIHHQSQENMFNFGSDLMESFRPVVDYWLADKNFLEFTPDIKYGLVDLLNLEIKYNKKQMLLKNAITKYVRDVIEYLNQETVEFDMEVEFTNEVPNNAINDNI	not soluble
MGSDKIHHHHHHMGGIWMSSAKTLEEVISKISGVISAKVIEEDGQPREIHVIADPSRNPKQIVRDIETVALASLGMKIDRRIISVAQLSQGRFPSSQTYEITSIEVKNLDRKKQVKVTIHNPLEDEDMVGESAGPGTSTNLPRLVGEAVIEAFNPDCPVSVDDVQKVFLAGREFVLVHLTIQDEDRERTEVGVAPLEGDFLKSVATATLKVVKDLT	not soluble
MGSDKIHHHHHHMGGNSLSKELYDWLGYSSETATASAFVQQRDKIRPEALKLLFHEFTRLTVSENSLQDYRLLAVDGSDLRLPSNSKDGFSSIRNSEDSKNYNLVHLDAMYDLMGKVYVDASVQSKKGMNEHKALVSMVDQSEINGNVIAIMDRGYESFNNIAHFQEKSWYYIIRAKESYGIISRLSLPDYPEYDEEIMLTLTRRQTKETLPLLKAYPHRYRWIQPHTTFDFIKPKDSKFYDLHFRAVRFAIADGVYETVYTNLNAEDFPPEKLKQLYNLRWGIETSFKELKYAVGLASLHSKKKDFILQEIFARLILYNYSSIIMHHISISEDLRVNFPVALNICRQFLRELIPAVQVLKLIGKHLSPIRPGRQFPRHQNPISAVGFQYRII	not soluble
MGSDKIHHHHHHMGIEAAVGAWNNTPRGDFAYKGTNLDIKDELKYDDETRLMGRVKIETPLFFPNLYLMATPMEFDGQGSKSGTFQFGDVTFDGTVPFTSELKLDHYDLGLYWGIPLLKTATAGVVNVDLGIDARLIDLKAEVVQGGVTESKSLVVGVPMIYAGVQVRPLSWFAAEGEARGMAYGDNRYYDLIARGKLILFDHLFAAAGYRYEKIEIDESDIKADVDFGGPFAEVGFQF	not soluble
MGSDKIHHHHHHMGKLSLAAKITHVPSMYLSELPGRHHGCRAEAIRGHQAIGERCRALGVDTIVVADTHWLVNAGYHVNCNGHFAGVYTSNELPHFIRDMRYEYPGNPALGHLIAASANERGIGTRAHEIDSLELEYGTLVPMRYMNADQRFKVVSIAGWCMWHALDESRRFGEALRHAIDASDANVAFLASGSLSHRFNDNGSPEEAIHMISREFYRQVDLRVVELWKQGDFATFCKMLPEYNAHCHGEGGMHDTAMLLGLLGWDRYDKPVEIVTDYFASSGTGQINAIFPLP	not soluble
MGSDKIHHHHHHMGKSIRKIVNWKQYNQALVNRGSLTFWVDEAAVNTWYCHEHHGGRGRGFSYSDVAIETALMVKGIFNLSLRALEGFLNSLFTLMSVPLKSPDYTSISKRAKTVNIKYRNPSRGPIAHVVVDATGLKVFGEGEWKTRKHGSEKRRTWRKLHLAIDASTHEVVAAEVSLVSVGDNEVLPTLLNPLRRKITQVSADGAYDTKGCYQLLRRKGCKATIPPRSNAGLWEKRHPRNEAVEALKAGQLKHWKIDNGYHQRSLAETAMGRYKQLNSPMLSLRDYNGQVAEALAGVKAMNKVIRLGMPVRQQVA	not soluble
MGSDKIHHHHHHMGKTLAEKIFSEHVGRDVKAGEIVLARVDIAMAQDGTGPLMINEFRELGFKEVKVPKAFLFIDHASPSPRKELSNSQKMMREFGKEMGVKVFDAGDGISHQILAEKYVKPGDLVAGADSHTCTAGGLGAFGTGMGSTDVAIIFGLGQNWFKVPETIKVVVNGKLQDGVYAKDIILEIARILGSDGATYKALEFHGSCIENMNVEDRLTISNMAVEVGAKAGLMPSDEKTREFLKKMGREEDFRELKADPDAVYETEIEIDATTLEPLVSLPHYVDNVRKVSEVEKEKIKIDQVFIGTCTNGRLQDLEIALKILEKHGKHPDVRLIVGPASRKVYMDALEKGIIKKFVELGAAVIPPGCGPCVGIHMGVLGDGERVLSTQNRNFKGRMGNPNAEIYLASPATAAATAVTGYITDPRRFI	not soluble
MGSDKIHHHHHHMGTRKGDAMEKFDTVVIGAGQAGIATSEHLRALGIDHVVLERGRIAERWRSERWDSLVANGPAWHDRFPGMAFSCDGDVFADKECVARYFEDYAKMIDAPVRTGVTVERARPHADRAGFLVETSQGTFDARNLICATGPFQKPAIPPIIPETSDLTQMHSTAYRNPDALPDGAVLVIGGGSSGSQIAAELHDAGRKVFFSIGPHDRPPRRYRGRDNVWWLGVLGIWNMDTPAPGTEHVTIAVSGAHGGKTVDFRLLAERGITLLGMSSGYEDGVLHIANDLKTNLDAGDANMLSLLEAADAYIKRTGIDLPPEPEAWVIPDDPDCVSNPVRALDLSENNIGTVIWATGFQFDYDWLEADTLDDRGSPIHQRGISAVPGLYFVGLPWQSRRGSSFIWGVWHDAKFIADQIAIQENYLAYRPTASS	not soluble
MGSDKIHHHHHHMGVKSLVPQELIEKIKLISPGTELRKALDDIINANFGALIFLVDDPKKYEDVIQGGFWLDTDFSAEKLYELSKMDGAIVLSEDITKIYYANVHLVPDPTIPTGETGTRHRTAERLAKQTGKVVIAVSRRRNIISLYYKNYKYVVNQVDFLISKVTQAISTLEKYKDNFNKLLSELEVLELENRVTLADVVRTLAKGFELLRIVEEIRPYIVELGEEGRLARMQLRELTEDVDDLLVLLIMDYSSEEVEEETAQNILQDFITRREPSPISISRVLGYDVQQAAQLDDVLVSARGYRLLKTVARIPLSIGYNVVRMFKTLDQISKASVEDLKKVEGIGEKRARAISESISSLKHRKTSE	not soluble
MGSDKIHHHHHHMGVYHRIRVSRQTTTLPNIILTKKMIAAKDKAPQLTPQEYFIWEEQQLEKHEYINGEVYAMTGGSVNHGRIAIRFTAMFDSHLQNTGCITGNSDIKVNIFGSNNYTYPDASVTCDVRDQTTTQYITYPCLIVEVLSKTTEAYDRGGKFRMYRQNPALIDYLLVSSTSVEIDLYHKNDAGDWLIINYKPGDTIELKSINLNFPIEKVYRGLTLEPENGG	not soluble
MGSDKIHHHHHHMHLIDFMNEDIKKKLVKKTYKKKETILFAEQENEYVILMIDGIAEAFILNVKGNISTIHLYRSGSFFGEMEQFNDGKKPVEIVAFTDCNVYKLHRDDFLNWLRGDFEATKFLIREISSKLVVNAELIEELSSLSVKERLLRCISLHYYRSELNLLTKKQLASEVNAPIRSINRAINECVQEHLIAYENKRFSVINQREVLKNLPTT	not soluble
MGSDKIHHHHHHMHLSRDVVLLITHSGDFFTIDRVAEALAKKGVQPFRLDTDKFPLQVQLTAHFDKSQSHHTIEYDNHSISTEQVQAVWMRRIWEPNLSQELAPKFQEACIRESKATLDAFWDSLKGARWVDDLERINYANNKLRQLRIASEVGFVIPQTLVTNKAQAAREFFGQVNGKMVSKLLTTLSRSMEANSSFFLYTSIVKEKDLEDAESLRYCPMVFQEQIPKQMELRVVYVNGHVFVGALNADVYAATKADWRKPGVEVGAWQHHQLPDELVRRLQAFMGKFGLLFGSLDFILTPSGEYVFLEVNPIGEWGMLEKDLDLPIANAIADILLQN	not soluble
MGSDKIHHHHHHMHNVDQQELSKFEQMAHSWWDPNGSFKPIHLLNPLRFNYIQTKANGLFGKKVLDVGCGGGILSEAMAQAGAIVTGIDMTTEPLEIAKQHAIENGLTIHYQQTTVEDLRLNHTACNAEKFDVVTCMEMLEHVPDPLSVIQSCKALLKPDGVLFLSTINRTLKAYMLVVIGAEYLLKMLPKGTHEFEKFIKPAELLTWCDQASLECKEMKGYHFNPLTEKFWLNNDVSCNYIAMLKAK	not soluble
MGSDKIHHHHHHMHSAALLQKVDELPRLPKAIAELLDVVNNEDSTVKAVSEKLSHDPVLSARVLRLANSARFGCSREVGTIDDAVVRLGMQTLRTLVIASAVVGAVPKVEGFDLADFWGNTFEVAIICQELAKRLGTLPEEAFTCGILHSIGELLIVNGDPAVAATISAAVADGADRNLMEKELLGYDNAEIGALLAQSWKFTPHLVKGIQFQNHPKSAEPYSKLAGMLAMAKQIAADWDKIPDDERTSWLAQINILAGIKVDLGGLAEKLAKMHGQGMEMGKQLA	not soluble
MGSDKIHHHHHHMHSPRELALLYRQGKNITQLMRDERGLIHNSNEIIEISYDLQAGSYIESMGEAWMAEHNAEYCQQLAKVILSLCNPDSILEAGIGEATTLADLLPHLSKKISSYGFDISWSRVAYGKQWLQQQGISNTVLCTGNLCHIPFADNAVELVYTSHSLEPNGGNEAAILKELYRVTSKFLVLLEPGYELANKDAKHRMEQHGYCRNIKSIAQSLGYRILLHEFFPSSVNPLNPTVITIIEKPPSFEPAKHILACPKYKTPLENIENMLFSPESLMVYPIVGGIPCLGINNGLVASKFRELISKG	not soluble
MGSDKIHHHHHHMHTVAVERAARYDPSEVAEAMDRALASLGGMDTFVRPGERVLIKPNMLAAKAPERAVTTHPEVLRAVIRLVRKAGGIPLVGDSPGIGGFRAVAEKSGMAAVVREAGAELVPFDEAVAVPGSGLFRRMDVARPYLEADRLINLPKLKTHEMMTMTCAVKNLFGAVVGTAKAGWHLKAGADRELFARLLLEIYLLRPPDLTIVDGIVAMEGDGPGSGDPRPMGLILAGANAVAVDVVAAELAGIPKQLLWVERAAERLGIDGWDRSRIATVGLPPDDARVPDFRLPHLSDVQFGIPGFLKNRLRHHLTARPVPNPEGCHLCGACLDACPPRAISVRDGRLHFDYHACIRCFCCRELCPDGSLGVRDGVLLKLLKKFKE	not soluble
MGSDKIHHHHHHMIARKLADLGVDVIEAGFPASSEGEFIATRKIFEEIGDQVEVIGLSRSNKNDIDKTISTGISSIHLFIATSELHMKYKLKMTKEEVLNKIYESVKYAKDHGMIVEFSPEDATRTEEDFLFTAIRTAIEAGADRINIPDTVGTMHPFKYYDMIKKIVNFVGERIIVSVHCHNDFGLATANSLAGVYAGARQAHVTVNGIGERAGNASLEEVVMGIKKLLNYETNVKTWKLYEVSRFVAEMTGVPVPYFKAIVGDNAFGHESGIHVHGVIENPFTYEPISPEEVGNFRRLALGKHSGIHGLRKLLEEQGIYLSDDKLKIVLAEIKKLAESGNKVTVEDAKNIALKLMNS	not soluble
MGSDKIHHHHHHMICMAVGIASLLFNIEEALNICESIKQITHLEIGIDNISECSELCKYKERISKLGLSIGIHLPMELNTCENIEYIRNSWINFIEKIEFELKGFDLRYFNLHLGYVMTNRVRKNRDKYLGNSVDFLDKLNTNSYVCIENTYSKGGDFSNIGNISYDFEYIFKRIKNSKICFCYDTGHCLIDEDAYVKNLKDKIRLIHLSDNDGINDTHVGIGRGILSEEGIKEVLTLDAEYLVLEINYEDIEDTISKLNNIVGEG	not soluble
MGSDKIHHHHHHMIDGDSSPLLRKQSPYPHWQYLHPESGDRLRIVPERGGLVTDWCCNGHELLYLDQERFADPEKSIRGGIPVLFPICGNLPGDLLPLPSGEFILKQHGFARDQPWELQLLEDHSGVKLSFVDSEETRAAYPFSFLLEMVVRPIRNALEIDVNVHNRSQSAMPFSFGLHPYFKVTDLNKVRLEGLPNSCLNHLQMAEAETAIQLAALTEGVDFLTRPAGPVTLVDEASGRSLQLQHENPMDLTVVWTDPPRQMLCLEPWTGPREALISGDRKLEIEAGGQQRLRCSFSINLEKTVRAASC	not soluble

Reference: the DeepSol protein solubility set
